Assay results taken from patent US20250152742A1, “COMPOSITIONS AND METHODS FOR NEUROLOGICAL DISEASES” (Trames Bio, Inc., priority 2022, published 2025).

System: engineered chimeric receptor SEQ ID NO: 33 and its mutants (human α7-nAChR ligand binding domain / human GlyRα1 ion pore domain) in Lenti-X 293T cells
Experiment: YFP fluorescence quenching anion reporter plate reader assay (percent quench, EC50)
Type: cell-based
Details: for YFP fluorescence quenching using CNL001 (percent quench): receptor named in row; for YFP fluorescence quenching using Varenicline, 3 nM var: ligand Varenicline 3 nM; for YFP fluorescence quenching using Varenicline, 30 nM var: ligand Varenicline 30 nM; for YFP fluorescence quenching using Varenicline, 300 nM var: ligand Varenicline 300 nM; for YFP fluorescence quenching using Varenicline, 500 nM var: ligand Varenicline 500 nM; for YFP fluorescence quenching using Varenicline, 1 uM var: ligand Varenicline 1 uM
Method in brief: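 Lenti-X 293T cells co-expressing an anion-quenchable YFP were transiently transfected with receptor DNA, then ligand was added in NaI-substituted buffer (pH 7.2) after 30 min at 37 °C. Fluorescence was read about 2 min; percent quench = mean of last 10 s over 15 s pre-ligand baseline.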

B1: CODA335: engineered receptor: L131T in SEQ ID NO: 33 (protein)
chain: MRCSPGGVWLALAASLLHVSLQGEFQRKLYKELVKNYNPLERPVANDSQPLTVYFSLSLLQIMDVDEKNQVLTTNIWLQMSWTDHYLQWNVSEYPGVKTVRFPDGQIWKPDILLYNSADERFDATFHTNVTVNSSGHCQYLPPGIFKSSCPMDLKNFPMDVQTCKLKFGSWSYGGWSLDLQMQEADISGYIPNGEWDLVGIPGKRSERFYECCKEPYPDVTFTVTMRRRMGYYLIQMYIPSLLIVILSWISFWINMDAAPARVGLGITTVLTMTTQSSGSRASLPKVSYVKAIDIWMAVCLLFVFSALLEYAAVNFVSRQHKELLRFRRKRRHHKSPMLNLFQEDEAGEGRFNFSAYGMGPACLQAKDGISVKGANNSNTTNPPPAPSKSPEEMRKLFIQRAKKIDKISRIGFPMAFLIFNMFYWIIYKIVRREDVHNQ
modifications: synthetic sequence of chimeric LGIC
1 nM CNL001, first column so headed
  YFP fluorescence quenching using CNL001 (percent quench): −9.942%
1 nM CNL001, second column so headed
  YFP fluorescence quenching using CNL001 (percent quench): −0.475%
1 nM brd (TC-5619/Bradanicline)
  YFP fluorescence quenching using TC-5619/Bradanicline (percent quench): −2.39%
3 nM brd (TC-5619/Bradanicline)
  YFP fluorescence quenching using TC-5619/Bradanicline (percent quench): −4.08%
10 nM CNL001, first column so headed
  YFP fluorescence quenching using CNL001 (percent quench): 17.889%
10 nM CNL001, second column so headed
  YFP fluorescence quenching using CNL001 (percent quench): 38.46%
10 nM brd (TC-5619/Bradanicline)
  YFP fluorescence quenching using TC-5619/Bradanicline (percent quench): −3.3%
30 nM TC-6683
  YFP fluorescence quenching using TC-6683 (percent quench): −13.84%
30 nM brd (TC-5619/Bradanicline)
  YFP fluorescence quenching using TC-5619/Bradanicline (percent quench): −9.69%
50 nM CNL001, first column so headed
  YFP fluorescence quenching using CNL001 (percent quench): 61.741%
50 nM CNL001, second column so headed
  YFP fluorescence quenching using CNL001 (percent quench): 69.159%
50 nM abt (ABT-126)
  YFP fluorescence quenching using ABT-126 (percent quench): −18%
100 nM CNL001, first column so headed
  YFP fluorescence quenching using CNL001 (percent quench): 73.635%
100 nM CNL001, second column so headed
  YFP fluorescence quenching using CNL001 (percent quench): 76.092%
100 nM CNL002
  YFP fluorescence quenching (percent quench): −14.53%
100 nM abt (ABT-126)
  YFP fluorescence quenching using ABT-126 (percent quench): −16.39%
100 nM azd0328
  YFP fluorescence quenching using AZD-0328 (percent quench): 11.33%
100 nM brd (TC-5619/Bradanicline)
  YFP fluorescence quenching using TC-5619/Bradanicline (percent quench): −1.05%
300 nM TC-6683
  YFP fluorescence quenching using TC-6683 (percent quench): −20.66%
300 nM abt (ABT-126)
  YFP fluorescence quenching using ABT-126 (percent quench): −15.05%
300 nM azd0328
  YFP fluorescence quenching using AZD-0328 (percent quench): 44.15%
300 nM brd (TC-5619/Bradanicline)
  YFP fluorescence quenching using TC-5619/Bradanicline (percent quench): 10.53%
1 uM CNL001, first column so headed
  YFP fluorescence quenching using CNL001 (percent quench): 80.633%
1 uM CNL001, second column so headed
  YFP fluorescence quenching using CNL001 (percent quench): 79.637%
1 uM CNL002
  YFP fluorescence quenching (percent quench): 6.45%
1 uM abt (ABT-126)
  YFP fluorescence quenching using ABT-126 (percent quench): −5.56%
1 uM brd (TC-5619/Bradanicline)
  YFP fluorescence quenching using TC-5619/Bradanicline (percent quench): 34.72%
3 uM TC-6683
  YFP fluorescence quenching using TC-6683 (percent quench): −17.86%
10 uM ach (acetylcholine)
  YFP fluorescence quenching (percent quench): −9.13%
30 uM CNL002
  YFP fluorescence quenching (percent quench): 57.43%
30 uM TC-6683
  YFP fluorescence quenching using TC-6683 (percent quench): −18.91%
30 uM azd0328
  YFP fluorescence quenching using AZD-0328 (percent quench): 80.96%
100 uM TC-6683
  YFP fluorescence quenching using TC-6683 (percent quench): −16.88%
100 uM ach (acetylcholine)
  YFP fluorescence quenching (percent quench): −9.29%
1 mM ach (acetylcholine)
  YFP fluorescence quenching (percent quench): 0.57%
3 mM ach (acetylcholine)
  YFP fluorescence quenching (percent quench): 35.37%
Ligand Facinicline 30 nM
  YFP fluorescence quenching using Facinicline, 30 nM fac: 1.24
Ligand Facinicline 300 nM
  YFP fluorescence quenching using Facinicline, 300 nM fac: 46.92
Ligand Facinicline 10 uM
  YFP fluorescence quenching using Facinicline, 10 uM fac: 79.06
Ligand Facinicline 30 uM
  YFP fluorescence quenching using Facinicline, 30 uM fac: 81.06
Ligand TC-6987 1 uM
  YFP fluorescence quenching using TC-6987, 1 uM tc6987: −0.14
Ligand TC-6987 3 uM
  YFP fluorescence quenching using TC-6987, 3 uM tc6987: −8.32
Ligand TC-6987 5 uM
  YFP fluorescence quenching using TC-6987, 5 uM tc6987: −2.13
Ligand TC-6987 10 uM
  YFP fluorescence quenching using TC-6987, 10 uM tc6987: 0.13
Ligand TC-6987 30 uM
  YFP fluorescence quenching using TC-6987, 30 uM tc6987: −6.86
Ligand TC-6987 50 uM
  YFP fluorescence quenching using TC-6987, 50 uM tc6987: −9.5
Ligand TC-6987 100 uM
  YFP fluorescence quenching using TC-6987, 100 uM tc6987: −10.98
Ligand TC-6987 300 uM
  YFP fluorescence quenching using TC-6987, 300 uM tc6987: −12.16
Ligand TC-6987 500 uM
  YFP fluorescence quenching using TC-6987, 500 uM tc6987: −2.41
First column
  YFP fluorescence quenching using Varenicline, 3 nM var: 0.398
  YFP fluorescence quenching using Varenicline, 30 nM var: 5.31
  YFP fluorescence quenching using Varenicline, 300 nM var: 4.327
  YFP fluorescence quenching using Varenicline, 500 nM var: 1.835
  YFP fluorescence quenching using Varenicline, 1 uM var: 9.471
Second column
  YFP fluorescence quenching using Varenicline, 3 nM var: 3.947
  YFP fluorescence quenching using Varenicline, 30 nM var: 7.666
  YFP fluorescence quenching using Varenicline, 300 nM var: 3.275
  YFP fluorescence quenching using Varenicline, 500 nM var: 4.863
  YFP fluorescence quenching using Varenicline, 1 uM var: 7.505
